Test results from article PMC5866196.

Biological target: PCSK9 (UniProt Q8NBP7 31-692)
Experiment: bead retention

Sequence of PCSK9 (Q8NBP7 31-692): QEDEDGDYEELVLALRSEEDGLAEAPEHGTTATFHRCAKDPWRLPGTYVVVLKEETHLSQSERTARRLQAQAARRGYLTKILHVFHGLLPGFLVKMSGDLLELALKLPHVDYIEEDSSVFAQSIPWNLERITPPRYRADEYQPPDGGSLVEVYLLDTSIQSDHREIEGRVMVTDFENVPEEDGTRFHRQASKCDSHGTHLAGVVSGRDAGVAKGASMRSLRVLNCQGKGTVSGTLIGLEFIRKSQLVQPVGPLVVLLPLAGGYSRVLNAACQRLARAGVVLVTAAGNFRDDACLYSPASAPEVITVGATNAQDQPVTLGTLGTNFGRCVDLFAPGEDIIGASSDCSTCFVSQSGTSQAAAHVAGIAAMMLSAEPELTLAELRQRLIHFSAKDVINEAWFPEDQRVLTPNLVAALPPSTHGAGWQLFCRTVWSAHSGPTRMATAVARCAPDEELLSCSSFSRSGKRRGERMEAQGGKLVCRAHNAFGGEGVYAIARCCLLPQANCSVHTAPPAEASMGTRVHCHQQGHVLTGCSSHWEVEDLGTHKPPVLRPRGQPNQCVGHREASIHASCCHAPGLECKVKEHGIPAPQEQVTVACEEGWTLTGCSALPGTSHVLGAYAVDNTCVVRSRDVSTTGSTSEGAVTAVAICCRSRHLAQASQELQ

Row | Binder | binding result
1 | PCSK9A3-DNA (ssDNA, no side-chains) DNA: CGAATCAGATTGGACCAGTCTCTACAACCTCTTTCATGTCTTTAGCACTACTTATCCTGATCAGAGTCCAGATGTAGGTAG | no binding
2 | PCSK9A7-DNA (ssDNA, no side-chains) DNA: CGAATCAGATTGGACCAGTCTTCCCTATTCCTCTACCGTTTGTTCTCTTACTTTCACCTTCTGGAGTCCAGATGTAGGTAG | no binding
3 | PCSK9A6-DNA (ssDNA, no side-chains) DNA: CGAATCAGATTGGACCAGTTTCAACCTCTTCTGCCTTCTCCACGGCTCCTTCTGCGTTGTTCCGAGTCCAGATGTAGGTAG | no binding
4 | PCSK9A5-DNA (ssDNA, no side-chains) DNA: CGAATCAGATTGGACCAGCCACGTTACTGATTCTTCTACCGTTTTTGCCCCCGGCACCTTCTGGAGTCCAGATGTAGGTAG | no binding
5 | PCSK9A1-DNA (ssDNA, no side-chains) DNA: CGAATCAGATTGGACCAGCCACTATATTCTCTCTCCTACCGTTTGCCTTTGCATCACCTTCTGGAGTCCAGATGTAGGTAG | no binding
6 | PCSK9A4-DNA (ssDNA, no side-chains) DNA: CGAATCAGATTGGACCAGCCCCAATGCTTTTCGTTTCTATCACGTCTTTAGCGGTACCTATTCGAGTCCAGATGTAGGTAG | no binding
7 | PCSK9A2-DNA (ssDNA, no side-chains) DNA: CGAATCAGATTGGACCAGCAACAATGATTCTTCTACCGTTTTTGCCCTCACCTTCTGCGCTGAGAGTCCAGATGTAGGTAG | no binding
